Source: publication PMC10817852, “Vascular injury activates the ELK1/SND1/SRF pathway to promote vascular smooth muscle cell proliferative phenotype and neointimal hyperplasia”

Key:
SND1 (1-660) = target: T1, SND1 (1-660) (UniProt Q78PY7 1-660); test: EMSA; SND1 alone; Beyotime GS009 chemiluminescent EMSA kit binding buffer (composition, salt and pH not given), 20 fmol biotin probe, 0.1 ug protein, 10 min at room temperature; conditions: protein: recombinant; label: biotin; blunt
T1 sequence: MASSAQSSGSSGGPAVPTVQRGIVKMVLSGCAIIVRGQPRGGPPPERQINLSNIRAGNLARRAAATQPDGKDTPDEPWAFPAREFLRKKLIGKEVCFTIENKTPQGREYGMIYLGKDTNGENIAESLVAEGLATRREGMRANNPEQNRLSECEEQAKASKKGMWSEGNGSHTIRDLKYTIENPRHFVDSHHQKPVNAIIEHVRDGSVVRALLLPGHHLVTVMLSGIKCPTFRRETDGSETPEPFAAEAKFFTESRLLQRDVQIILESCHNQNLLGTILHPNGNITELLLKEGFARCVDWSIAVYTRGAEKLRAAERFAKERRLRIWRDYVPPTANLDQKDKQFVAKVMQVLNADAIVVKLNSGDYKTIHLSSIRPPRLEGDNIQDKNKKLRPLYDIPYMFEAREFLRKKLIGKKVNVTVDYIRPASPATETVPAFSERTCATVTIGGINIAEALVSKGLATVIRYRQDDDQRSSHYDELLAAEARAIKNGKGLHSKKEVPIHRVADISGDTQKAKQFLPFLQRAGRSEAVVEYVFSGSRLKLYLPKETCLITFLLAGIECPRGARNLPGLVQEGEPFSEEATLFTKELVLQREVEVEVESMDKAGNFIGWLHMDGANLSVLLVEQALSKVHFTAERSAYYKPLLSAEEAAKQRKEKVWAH

SRF (1-266) = target: T2, SRF (1-266) (UniProt P11831 1-266); test: EMSA; unlabeled probe (200-fold) diminished binding; Beyotime GS009 chemiluminescent EMSA kit binding buffer (composition, salt and pH not given), 20 fmol biotin probe, 0.1 ug protein, 10 min at room temperature; conditions: protein: recombinant; (GST fusions described); chain copies: 2; label: biotin; blunt
T2 sequence: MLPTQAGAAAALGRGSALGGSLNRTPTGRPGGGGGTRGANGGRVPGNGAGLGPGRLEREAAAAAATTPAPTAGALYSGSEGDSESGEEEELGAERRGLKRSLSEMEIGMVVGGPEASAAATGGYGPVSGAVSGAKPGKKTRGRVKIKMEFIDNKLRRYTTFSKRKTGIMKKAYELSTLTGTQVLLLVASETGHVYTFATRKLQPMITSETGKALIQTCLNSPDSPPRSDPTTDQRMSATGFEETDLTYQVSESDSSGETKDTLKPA

B1: Fos CArG probe (dsDNA)
DNA 1: CCATATTAGGCCATATTAGGCCATATTAGGCCATATTAGGCCATATTAGG
DNA 2: CCTAATATGGCCTAATATGGCCTAATATGGCCTAATATGGCCTAATATGG
binding result (SND1 (1-660)): no binding | binding result (SRF (1-266)): binds
